Test results reported in patent US20180250395A1 (Janssen / Centocor, published 2018).
Where two headings read alike, the source gives them in different places.

Tests used:
[1] = biological target: T1, human CD47 on Jurkat cells (human, UniProt Q08722 19-323); assay: MSD on Jurkat cells; blocks SIRP alpha-Fc binding
T1 construct: Endogenous CD47 of the cell lines; also called CD47-expressing Jurkat cells; CD47 on HL60 cells
Source text: The ECL signal was plotted as a function of antibody concentrations, and EC₅₀ values were obtained from fitting the dose-response curves using non-linear regression model in GraphPad Prism.

[2] = biological target: T2, Cyno CD47 ECD protein, His-tagged, monomer (cyno); assay: ProteOn SPR; cyno KD / human KD
T2 construct: extracellular domain; also called cynomolgus CD47
Procedure: (§1) Kinetic binding affinities to human CD47 and Cyno CD47 ECD proteins were determined by a Protein Interaction Array System (ProteOn). Briefly, mAbs were captured on the sensor chip via anti-IgG-Fc to reach surface density of 200-350 RU. […] The dissociation was monitored for 30 min. Data were fitted to 1:1 binding model.

[3] = biological target: T2, Cyno CD47 ECD protein, His-tagged, …; assay: ProteOn SPR; mAb captured, ECD monomer as analyte
Procedure: as §1

[4] = biological target: T3, recombinant human CD47 extracellular domain (ECD), His-tagged, monomer (human, UniProt Q08722 19-141); assay: ProteOn SPR; mAb captured, ECD monomer as analyte
T3 construct: C-terminal 6xHis tag; monomeric fraction from Superdex 200; also called human CD47 ECD; CD47-ECD monomer
Procedure: as §1

[5] = biological target: CD47 ECD-C15G mutant, His-tagged (human, UniProt Q08722 19-141, N-terminus Q1 cyclized as pyroglutamate (C47B161 complex); glycans at 5, 16, 32, 55, 93 except in the endoH-deglycosylated C47B161 complex); assay: Fab:CD47 complex isolated by chromatography and crystallized
Procedure: The His-tagged CD47 was deglycosylated and further purified by affinity chromatography. The complex CD47:Fab was prepared by mixing Fabs with excess CD47 at a molar ratio ranging from 1.2:1.0 to 1.5:1.0. The complex was incubated overnight at 4° C., separated from the uncomplexed species using size exclusion chromatography, and concentrated to 7.5-20 mg/mL in 20 mM HEPES pH 7.4, 100 mM NaCl, 5% glycerol. The concentrated complex was then used to set up crystallization trials using the sitting drop method at 20° C. and crystals were optimized by varying the protein to reservoir ratio.

[6] = biological target: T2, Cyno CD47 ECD protein, His-tagged, …; assay: ProteOn SPR; mAb captured, ECD monomer as analyte; remark: listed apart in the source
[7] = biological target: T3, recombinant human CD47 extracellular …; assay: ProteOn SPR; mAb captured, ECD monomer as analyte; remark: listed apart in the source
[8] = biological target: T2, Cyno CD47 ECD protein, His-tagged, …; assay: ProteOn SPR; cyno KD / human KD; remark: listed apart in the source
[9] = biological target: T3, recombinant human CD47 extracellular …; assay: ProteOn SPR
[10] = biological target: T1, human CD47 on Jurkat cells; assay: MSD on Jurkat cells; blocks SIRP alpha-Fc binding; remark: listed apart in the source
[11] = biological target: T2, Cyno CD47 ECD protein, His-tagged, …; assay: ProteOn SPR; cyno KD / human KD; remark: listed apart in the source
[12] = biological target: T2, Cyno CD47 ECD protein, His-tagged, …; assay: ProteOn SPR; mAb captured, ECD monomer as analyte; remark: listed apart in the source
[13] = biological target: T3, recombinant human CD47 extracellular …; assay: ProteOn SPR; mAb captured, ECD monomer as analyte; remark: listed apart in the source
[14] = biological target: T4, recombinant human CD47 extracellular domain (ECD), His-tagged, dimer (human, UniProt Q08722 19-141); assay: MSD; CD47-ECD dimer binding to captured SIRP alpha-Fc, mAb 10 µg/ml
T4 construct: Dimeric fraction of the same His-tagged ECD; also called His-tagged CD47-ECD dimer protein

[15] = biological target: T3, recombinant human CD47 extracellular …; assay: method not restated

B1: B6H12.2 (human IgG2sigma) (antibody, V domains shown)
VH: EVKLVESGGDLVKPGGSLKLSCAASGFTFSGYGMSWVRQTPDKRLEWVATITSGGTYTYYPDSVKGRFTISRDNAKNTLYLQIDSLKSEDTAIYFCARSLAGNAMDYWGQGTSVTVSS
VL: DIVMTQSPATLSVTPGDRVSLSCRASQTISDYLHWYQQKSHESPRLLIKFASQSISGIPSRFSGSGSGSDFTLSINSVEPEDVGVYYCQNGHGFPRTFGGGTKLEIK
notes: also called IgG2 Fc-silent B6H12.2; positive control anti-CD47 mAb
EC50 [1]: 0.21 µg/mL
KD Ratio Cyno/Human [2]: 1.1
Kd [3]: 0.572 nM
Kd [4]: 0.539 nM

B2: B6H12.2 Fab (Fab, V domains shown)
VH: EVKLVESGGDLVKPGGSLKLSCAASGFTFSGYGMSWVRQTPDKRLEWVATITSGGTYTYYPDSVKGRFTISRDNAKNTLYLQIDSLKSEDTAIYFCARSLAGNAMDYWGQGTSVTVSS
VL: DIVMTQSPATLSVTPGDRVSLSCRASQTISDYLHWYQQKSHESPRLLIKFASQSISGIPSRFSGSGSGSDFTLSINSVEPEDVGVYYCQNGHGFPRTFGGGTKLEIK
notes: Fab used for co-crystallization
binding result [5]: binds

B3: C47B147 (antibody, V domains shown)
VH: EVQLVQSGAEVKKPGESLKISCKGSGYTFTDYNMHWVRQMPGKGLEWMGDIYPYNGGTGYNQKFKGQVTISADKSISTAYLQWSSLKASDTAMYYCARGGWHAMDSWGQGTLVTVSS
VL: DIVMTQSPDSLAVSLGERATINCRSRQSIVHTNRYTYLAWYQQKPGQPPKLLIYKVSNRFSGVPDRFSGSGSGTDFTLTISSLQAEDVAVYYCFQGSHVPYTFGGGTKLEIK
notes: HFA variant of C47B116; human IgG2sigma/kappa
Kd [6]: 13.5 nM
Kd [7]: 9.55 nM
KD Ratio Cyno/Human [8]: 1.4
fold decrease of affinity against parent C47B116 [9]: > 6 fold
EC50 [10]: 0.24 µg/mL

B4: C47B148 (antibody, V domains shown)
VH: EVQLVQSGAEVKKPGESLKISCKGSGYTFTDYNMHWVRQMPGKGLEWMGDIYPYNGGTGYNQKFKGQVTISADKSISTAYLQWSSLKASDTAMYYCARGGWHAMDSWGQGTLVTVSS
VL: EIVLTQSPATLSLSPGERATLSCRSRQSIVHTNRYTYLAWYQQKPGQAPRLLIYKVSNRFSGIPARFSGSGSGTDFTLTISSLEPEDFAVYYCFQGSHVPYTFGGGTKLEIK
notes: as for B3
EC50 [10]: 0.09 µg/mL

B5: C47B151 (antibody, V domains shown)
VH: QVQLVQSGAEVKKPGSSVKVSCKASGYTFTDYNMHWVRQAPGQGLEWMGDIYPYNGGTGYNQKFKGRVTITADESTSTAYMELSSLRSEDTAVYYCARGGWHAMDSWGQGTLVTVSS
VL: DIVMTQSPDSLAVSLGERATINCRSRQSIVHTNRYTYLAWYQQKPGQPPKLLIYKVSNRFSGVPDRFSGSGSGTDFTLTISSLQAEDVAVYYCFQGSHVPYTFGGGTKLEIK
notes: as for B3
Kd [6]: 9.34 nM
Kd [7]: 6.89 nM
KD Ratio Cyno/Human [8]: 1.4
fold decrease of affinity against parent C47B116 [9]: > 6 fold
EC50 [10]: 0.29 µg/mL

B6: C47B91 (antibody, human IgG2, V domains shown)
VH: EVQLVQSGAEVKKPGESLKISCKGSGYSFTSYWIGWVRQMPGKGLEWMGIIYPGDSDTRYSPSFQGQVTISADKSISTAYLQWSSLKASDTAMYYCARVGRFASHQLDYWGQGTLVTVSS
VL: EIVLTQSPATLSLSPGERATLSCRASQSVNKALAWYQQKPGQAPRLLIYGASNRATGIPARFSGSGSGTDFTLTISSLEPEDFAVYYCQQGKGWPFTFGQGTKVEIK
notes: phage-derived; also called C47M91; parent C47B91
KD Ratio Cyno/Human [11]: 3
Kd [12]: 17.8 nM
Kd [13]: 5.95 nM
EC50 [1]: 0.06 µg/mL
KD Ratio Cyno/Human [2]: 1.6
% SIRP alpha Inhibition [14]: 82.6%
Kd [3]: 24.5 nM
Kd [4]: 15.6 nM

B7: C47B222 Fab (Fab, V domains shown)
VH: EVQLVQSGAEVKKPGESLKISCKGSGYSFTDYWIGWVRQMPGKGLEWMGIIYPGDSDTRYSPSFQGQVTISADKSISTAYLQWSSLKASDTAVYYCARVGRFASHQLDYWGQGTLVTVSS
VL: EIVLTQSPATLSLSPGERATLSCRASQSVNNRLAWYQQKPGQAPRLLIHWASTRAIGIPARFSGSGSGTDFTLTISSLEPEDFAVYYCQQGASWPFTFGQGTKVEIK
notes: His-tagged Fab from HEK293
binding result [5]: binds

B8: C47B227 Fab (Fab, V domains shown)
VH: EVQLVQSGAEVKKPGESLKISCKGSGYSFDDYWIGWVRQMPGKGLEWMGIIYPGDSDTRYSPSFQGQVTISADKSISTAYLQWSSLKASDTAVYYCARVGRFASHQLDYWGQGTLVTVSS
VL: EIVLTQSPATLSLSPGERATLSCRASQSVGSRLAWYQQKPGQAPRLLIYWASTRATGIPARFSGSGSGTDFTLTISSLEPEDFAVYYCQQGAYWPFTFGQGTKVEIK
notes: His-tagged Fab from HEK293
binding result [5]: binds

B9: C47B167 (antibody, V domains shown)
VH: EVQLVQSGAEVKKPGESLKISCKGSGYTFTSYWMQWVRQMPGKGLEWMGEINPSNGRTDYNEKFRGQVTISADKSISTAYLQWSSLKASDTAMYYCARQGGSGYGNSYGFFDVWGQGTTVTVSS
VL: EIVLTQSPATLSLSPGERATLSCRASSSVSYMHWYQQKPGQAPRLLIYDTSRLASGIPARFSGSGSGTDFTLTISSLEPEDFAVYYCQQWRSNPYTFGGGTKVEIK
notes: isotype not restated
Kd [15]: 5.2 nM

B10: C47B167 Fab (Fab, V domains shown)
VH: EVQLVQSGAEVKKPGESLKISCKGSGYTFTSYWMQWVRQMPGKGLEWMGEINPSNGRTDYNEKFRGQVTISADKSISTAYLQWSSLKASDTAMYYCARQGGSGYGNSYGFFDVWGQGTTVTVSS
VL: EIVLTQSPATLSLSPGERATLSCRASSSVSYMHWYQQKPGQAPRLLIYDTSRLASGIPARFSGSGSGTDFTLTISSLEPEDFAVYYCQQWRSNPYTFGGGTKVEIK
notes: His-tagged Fab from HEK293
binding result [5]: binds

B11: C47B116 (antibody, human IgG2, V domains shown)
VH: EVQLQQSGPELVKPGASVKISCKASGYTFTDYNMHWVKQSHGKSLEWIGDIYPYNGGTGYNQKFKSKATLTVDNSSSTAYMELRSLTSEDSAVYYCARGGWHAMDSWGQGTSVTVSS
VL: DVVMTQTPLSLPVSLGDQASISCRSRQSIVHTNRYTYLAWYLQKPGQSPKLLIYKVSNRFSGVPDRFSGSGSGTDFTLKISRVEAEDLGVYYCFQGSHVPYTFGGGTKLEIK
notes: hybridoma-derived, chimeric human IgG2 Fc-silent/human kappa; also called parent hybridoma mAb C47B116
Kd [6]: 0.95 nM
Kd [7]: 1.02 nM
EC50 [1]: 0.1 µg/mL
KD Ratio Cyno/Human [2]: 0.7
KD Ratio Cyno/Human [8]: 0.9
EC50 [10]: 0.12 µg/mL
Kd [3]: 0.967 nM
Kd [4]: 1.41 nM

B12: C47B152 (antibody, V domains shown)
VH: QVQLVQSGAEVKKPGSSVKVSCKASGYTFTDYNMHWVRQAPGQGLEWMGDIYPYNGGTGYNQKFKGRVTITADESTSTAYMELSSLRSEDTAVYYCARGGWHAMDSWGQGTLVTVSS
VL: EIVLTQSPATLSLSPGERATLSCRSRQSIVHTNRYTYLAWYQQKPGQAPRLLIYKVSNRFSGIPARFSGSGSGTDFTLTISSLEPEDFAVYYCFQGSHVPYTFGGGTKLEIK
notes: as for B3
EC50 [10]: 0.26 µg/mL

B13: C47B161 Fab (Fab, V domains shown)
VH: QVQLVQSGAEVKKPGASVKVSCKASGYTFTDYNMHWVRQAPGQRLEWMGDIYPYNGGTGYNQKFKGRVTITRDTSASTAYMELSSLRSEDTAVYYCARGGWHAMDSWGQGTLVTVSS
VL: DIVMTQSPLSLPVTPGEPASISCRSRQSIVHTNRYTYLAWYLQKPGQSPQLLIYKVSNRFSGVPDRFSGSGSGTDFTLKISRVEAEDVGVYYCFQGSHVPYTFGGGTKLEIK
binding result [5]: binds

B14: C47B157 (human IgG2sigma) (antibody, V domains shown)
VH: QVQLVQSGAEVKKPGASVKVSCKASGYTFTDYNMHWVRQAPGQGLEWMGDIYPYNGGTGYNQKFKGRVTMTRDTSTSTVYMELSSLRSEDTAVYYCARGGWHAMDSWGQGTLVTVSS
VL: DIVMTQSPLSLPVTPGEPASISCRSRQSIVHTNRYTYLAWYLQKPGQSPQLLIYKVSNRFSGVPDRFSGSGSGTDFTLKISRVEAEDVGVYYCFQGSHVPYTFGGGTKLEIK
notes: HFA variant of C47B116; human IgG2sigma/kappa; also called IgG2 Fc-silent C47B157
Kd [6]: 3.71 nM
Kd [7]: 3.53 nM
KD Ratio Cyno/Human [8]: 1.1
fold change of affinity against parent C47B116 [9]: ≤ 5 fold
EC50 [10]: 0.13 µg/mL

B15: C47B161 (human IgG2sigma) (antibody, V domains shown)
VH: QVQLVQSGAEVKKPGASVKVSCKASGYTFTDYNMHWVRQAPGQRLEWMGDIYPYNGGTGYNQKFKGRVTITRDTSASTAYMELSSLRSEDTAVYYCARGGWHAMDSWGQGTLVTVSS
VL: DIVMTQSPLSLPVTPGEPASISCRSRQSIVHTNRYTYLAWYLQKPGQSPQLLIYKVSNRFSGVPDRFSGSGSGTDFTLKISRVEAEDVGVYYCFQGSHVPYTFGGGTKLEIK
notes: HFA variant of C47B116; human IgG2sigma/kappa; also called IgG2 Fc-silent C47B161
Kd [6]: 2.96 nM
Kd [7]: 2.87 nM
KD Ratio Cyno/Human [8]: 1
fold change of affinity against parent C47B116 [9]: ≤ 5 fold
EC50 [10]: 0.06 µg/mL
